Reference: doi:10.1101/2020.05.28.122556

Assays:
[1] = molecular target: EED (amino acids 40-441) (human) (UniProt O75530); assay: fluorescence polarisation
[2] = molecular target: 5-carboxyfluorescein (5-FAM, single isomer) labelled JARID2-K116me3 peptide; assay: fluorescence polarisation

Chain of EED (amino acids 40-441) (human) (O75530 40-441): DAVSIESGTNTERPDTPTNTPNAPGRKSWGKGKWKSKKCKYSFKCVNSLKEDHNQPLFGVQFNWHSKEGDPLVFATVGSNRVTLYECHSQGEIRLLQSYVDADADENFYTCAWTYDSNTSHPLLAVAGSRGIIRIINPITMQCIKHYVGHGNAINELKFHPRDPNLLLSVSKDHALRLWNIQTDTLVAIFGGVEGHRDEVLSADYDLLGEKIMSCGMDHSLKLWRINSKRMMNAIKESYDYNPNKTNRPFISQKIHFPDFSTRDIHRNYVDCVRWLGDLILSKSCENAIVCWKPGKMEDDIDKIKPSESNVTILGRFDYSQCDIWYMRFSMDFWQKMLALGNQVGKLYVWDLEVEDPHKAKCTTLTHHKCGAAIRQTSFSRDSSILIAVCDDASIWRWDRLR
Chain of EED (amino acids 40-441) (O75530 40-441): as above

Substance	Kd [1]	other results
PALI1-K1214me3 peptide		fold lower affinity than PALI1-K1219me3 and PALI1-K1241me3 [1]: 4 fold
PALI1-K1241me1 peptide	240 µM	
EED (amino acids 40-441) (from UniProt O75530-1 40-441) (domain or fragment)		Kd [2]: 8.07 µM
PALI1-K1219me3 peptide	7.53 µM	

More lines, in order of falling Kd [1], values ahead:

Kd [1]	Substance	other results
41.3 µM	H3K27me3 peptide	
18.8 µM	PALI1-K1241me2 peptide	
8.47 µM	PALI1-K1241me3 peptide	
